Test results from US6328728A, “Composition and method for enhancing electrotransport agent delivery” (Alza Corporation, priority 1997, dated 2001).

Experiment: Measurement of circular dichroism (mean residue ellipticity at 222 nm)
Assay type: physicochemical
Conditions: for Ellipticity (mean residue at 222 nm) / Ellipticity (mean residue) (222 nm), raw / Ellipticity (mean residue) (222 nm), raw value: 32° C.
Text: In general, the structure of a polypeptide in an aqueous buffered solution is in constant flux between portions thereof being random coil and alpha-helix configurations. For the polypeptides used in the following examples, the predominant structure is a random coil since the alpha-helix configuration is unstable in the absence of bound surfactant. According to the present invention adding surfactant to an aqueous solution of a polypeptide stabilizes the alpha-helix configuration. Circular dichroism is a measurement of the amount of the alpha-helix configured polypeptide present in the solution. Thus, circular dichroism provides an indirect measurement of the degree of binding of the surfactant to the polypeptide. (See, for example, Epand R. M., Epand R. F., Orlowski R. C., Schuleter R. J., Boni L. T. and Hui S. W., Biochemistry 22, 5074-5084 (1983); Hui, S. W., Epand R. M., Dell K. R., Epand R. F. and Orlowski R. C., Biochimica Biophysica Acta 772, 264-272 (1984); Epand R. M., Epand R. F., and Orlowski R. C., International Journal Peptide Protein Research 25 105-111; Epand R. M., Epand R. F., Orlowski R. C., Seyler J. K. and Colescott R. L., Biochemistry 25, 1964-1968; Epand R. M., Seyler J. K. and Orlowski R. C., European Journal Biochemistry 159, 125-127 (1986); Wiersema P. H., Loeb A. L. and Overbeek, J., Colloid Interface Science 22, 78-99 (1966)).
The surfactant/peptide circular dichroism (CD) spectra were obtained in a 2 mm path-length cell (110-Q-2 Model, AVIV, Lakewood, N.J.) at 32° C. The cell was initially loaded with 0.60 mL of a solution containing about 0.25 mg/mL of the peptide in 10 mM sodium chloroacetate (pH 3.5) or 10 mM sodium borate (pH 9.0). The buffers were selected to minimize the effect of the temperature on the pH of the solution and to minimize light absorption, thereby optimizing the signal-to-noise ratio (SNR). The peptide concentration was determined by spectrophotometry, with log-log correction for light scattering. The surfactant concentration was increased step-wise by titration of concentrated surfactant stock directly into the CD cell, followed by eight inversions of the cell, with the air bubble providing the mixing turbulence. After mixing, the cell was placed into the AVIV 62 CD spectrometer (AVIV, Lakewood, N.J.). In order to approximate temperature and chemical equilibrium, the sample remained in the spectrometer 5 minutes before a reading was taken. The CD spectrum was taken using a band pass of 1 nm, a data interval of 1 nm, and a data averaging time of 10 seconds. The mean residue ellipticity is the ellipticity divided by the path length in cm times the amino acid residue concentration in decimoles/cm^3. See Methods in Enzymology, Vol 130, pp 208-269, Yang et al, "Calculation of Protein Conformation from Circular Dichroism" (1986).
The measurement procedures described above were conducted on an aqueous solution of the protein insulinotropin, with TWEEN® 20 (MW=1126 g/mol) as the surfactant, with the following modifications. The insulinotropin donor solution concentration was 0.12 mg/mL. One test was run in 10 mM sodium borate at pH 9.0 and another test in 10 mM sodium chloroacetate at pH 3.5.
Fractional changes (%δ) are defined as the difference between the reading at a given surfactant concentration (Ec) minus the reading at zero surfactant (E0), the quantity divided by the difference between the reading at saturated surfactant concentration (Es) minus the reading at zero surfactant (E0), i. e. %δ=(Ec -E0)/(Es-E0).
The measurement procedures described earlier were conducted on an aqueous solution of insulinotropin as the agent, and TWEEN® 40 (molecular weight 1282 g/mol) as the surfactant with the following changes. The insulinotropin concentration was initially 0.29 mg/mL, and 0.21 mg/mL after the final TWEEN® 40 addition and the temperature was held at 32° C. Two tests were conducted at two different concentrations of TWEEN® 40. […]

[1] = pH 3.5, 10 mM sodium chloroacetate, TWEEN 20 0
[2] = pH 3.5, 10 mM sodium chloroacetate, TWEEN 20 0.133 mM
[3] = pH 3.5, 10 mM sodium chloroacetate, TWEEN 20 0.266 mM
[4] = pH 9.0, 10 mM sodium borate, TWEEN 20 0
[5] = pH 9.0, 10 mM sodium borate, TWEEN 20 0.133 mM
[6] = pH 9.0, 10 mM sodium borate, TWEEN 20 0.266 mM
[7] = pH 9.0, 10 mM sodium borate, TWEEN 20 0.515 mM
[8] = pH 9.0, 10 mM sodium borate, TWEEN 20 1.00 mM
[9] = pH 9.0, 10 mM sodium borate, TWEEN 20 1.67 mM
[10] = pH 9.0, 10 mM sodium borate, TWEEN 20 2.56 mM
[11] = pH 9.0, 10 mM sodium borate, TWEEN 20 2.66 mM
[12] = pH 9.0, 10 mM sodium borate, TWEEN 20 4.00 mM
[13] = pH 9.0, 10 mM sodium borate, TWEEN 20 5.00 mM
[14] = pH 9.0, 10 mM sodium borate, TWEEN 20 7.04 mM
[15] = pH 9.0, 10 mM sodium borate, TWEEN 20 7.26 mM
[16] = pH 9.0, 10 mM sodium borate, TWEEN 20 9.41 mM
[17] = pH 9.0, 10 mM sodium borate, TWEEN 20 12.3 mM
[18] = pH 9.0, 10 mM sodium borate, TWEEN 20 17.7 mM
[19] = pH 9.0, 10 mM sodium borate, TWEEN 20 20.0 mM
[20] = pH 9.0, 10 mM sodium borate, TWEEN 20 22.1 mM

Insulinotropin: the protein insulinotropin
Ellipticity (mean residue at 222 nm) (pH 3.5, 10 mM sodium chloroacetate, DTAC 0): -4268 deg-cm^2 /dmol
Ellipticity (mean residue at 222 nm) (pH 3.5, 10 mM sodium chloroacetate, DTAC 0.83 mM): -5182 deg-cm^2 /dmol
Ellipticity (mean residue at 222 nm) (pH 3.5, 10 mM sodium chloroacetate, DTAC 1.64 mM): -7285 deg-cm^2 /dmol
Ellipticity (mean residue at 222 nm) (pH 3.5, 10 mM sodium chloroacetate, DTAC 3.23 mM): -9863 deg-cm^2 /dmol
Ellipticity (mean residue at 222 nm) (pH 3.5, 10 mM sodium chloroacetate, DTAC 5.51 mM): -11672 deg-cm^2 /dmol
Ellipticity (mean residue at 222 nm) (pH 3.5, 10 mM sodium chloroacetate, DTAC 9.10 mM): -11951 deg-cm^2 /dmol
Ellipticity (mean residue at 222 nm) (pH 3.5, 10 mM sodium chloroacetate, DTAC 13.0 mM): -12219 deg-cm^2 /dmol
Ellipticity (mean residue at 222 nm) (pH 3.5, 10 mM sodium chloroacetate, DTAC 25.0 mM): -12326 deg-cm^2 /dmol
Ellipticity (mean residue) (222 nm), raw [1]: -4877
Ellipticity (mean residue) (222 nm), raw [2]: -7087
Ellipticity (mean residue) (222 nm), raw [3]: -8437
Ellipticity (mean residue at 222 nm) (pH 3.5, 10 mM sodium chloroacetate, TWEEN 40 0): -4621 deg-cm^2 /dmol
Ellipticity (mean residue at 222 nm) (pH 3.5, 10 mM sodium chloroacetate, TWEEN 40 0.025 mM): -4997 deg-cm^2 /dmol
Ellipticity (mean residue at 222 nm) (pH 3.5, 10 mM sodium chloroacetate, TWEEN 40 0.092 mM): -6045 deg-cm^2 /dmol
Ellipticity (mean residue at 222 nm) (pH 3.5, 10 mM sodium chloroacetate, TWEEN 40 0.214 mM): -7317 deg-cm^2 /dmol
Ellipticity (mean residue at 222 nm) (pH 3.5, 10 mM sodium chloroacetate, TWEEN 40 0.390 mM): -8554 deg-cm^2 /dmol
Ellipticity (mean residue at 222 nm) (pH 3.5, 10 mM sodium chloroacetate, TWEEN 40 0.718 mM): -10379 deg-cm^2 /dmol
Ellipticity (mean residue at 222 nm) (pH 3.5, 10 mM sodium chloroacetate, TWEEN 40 1.21 mM): -12282 deg-cm^2 /dmol
Ellipticity (mean residue at 222 nm) (pH 3.5, 10 mM sodium chloroacetate, TWEEN 40 2.06 mM): -14017 deg-cm^2 /dmol
Ellipticity, fractional change (% δ) [1]: 0
Ellipticity, fractional change (% δ) [2]: 0.21
Ellipticity, fractional change (% δ) [3]: 0.34
Ellipticity, fractional change (% δ) (pH 3.5, 10 mM sodium chloroacetate, TWEEN 20 0.515 mM): 0.58
Ellipticity, fractional change (% δ) (pH 3.5, 10 mM sodium chloroacetate, TWEEN 20 1.00 mM): 0.59
Ellipticity, fractional change (% δ) (pH 3.5, 10 mM sodium chloroacetate, TWEEN 20 1.67 mM): 0.91
Ellipticity, fractional change (% δ) (pH 3.5, 10 mM sodium chloroacetate, TWEEN 20 2.28 mM): 0.96
Ellipticity, fractional change (% δ) (pH 3.5, 10 mM sodium chloroacetate, TWEEN 20 3.20 mM): 0.97
Ellipticity, fractional change (% δ) (pH 3.5, 10 mM sodium chloroacetate, TWEEN 20 4.44 mM): 1.00
Ellipticity (mean residue) (222 nm), raw value [4]: -5010
Ellipticity (mean residue) (222 nm), raw value [5]: -5641
Ellipticity (mean residue) (222 nm), raw value [6]: -6252
Ellipticity (mean residue) (222 nm), raw value [7]: -6553
Ellipticity (mean residue) (222 nm), raw value [8]: -7050
Ellipticity (mean residue) (222 nm), raw value [9]: -7857
Ellipticity (mean residue) (222 nm), raw value [10]: -7915
Ellipticity (mean residue) (222 nm), raw value [11]: -8970
Ellipticity (mean residue) (222 nm), raw value [12]: -9165
Ellipticity (mean residue) (222 nm), raw value [13]: -9124
Ellipticity (mean residue) (222 nm), raw value [14]: -10288
Ellipticity (mean residue) (222 nm), raw value [15]: -9702
Ellipticity (mean residue) (222 nm), raw value [16]: -10451
Ellipticity (mean residue) (222 nm), raw value [17]: -10540
Ellipticity (mean residue) (222 nm), raw value [18]: -10709
Ellipticity (mean residue) (222 nm), raw value [19]: -10876
Ellipticity (mean residue) (222 nm), raw value [20]: -10872
Ellipticity, fractional change (% δ) [4]: 0
Ellipticity, fractional change (% δ) [5]: .11
Ellipticity, fractional change (% δ) [6]: .21
Ellipticity, fractional change (% δ) [7]: .26
Ellipticity, fractional change (% δ) [8]: .35
Ellipticity, fractional change (% δ) [9]: .49
Ellipticity, fractional change (% δ) [10]: .50
Ellipticity, fractional change (% δ) [11]: .68
Ellipticity, fractional change (% δ) [12]: .71
Ellipticity, fractional change (% δ) [13]: .70
Ellipticity, fractional change (% δ) [14]: .90
Ellipticity, fractional change (% δ) [15]: .80
Ellipticity, fractional change (% δ) [16]: .92
Ellipticity, fractional change (% δ) [17]: .94
Ellipticity, fractional change (% δ) [18]: .97
Ellipticity, fractional change (% δ) [19]: 1.00
Ellipticity, fractional change (% δ) [20]: 1.00
